{
  "source": "patent US6723697B2",
  "about": "“IL-16 antagonists” (Research Corporation Technologies, Inc., priority 1999, dated 2004)",
  "key": {"anti-CD4 antibody (OKT4)": {"test_system": "anti-CD4 antibody (OKT4)", "test": "OKT4-induced migration of T-cells", "format": "cell-based", "conditions": "OKT4 1 μg/ml, co-incubation"}, "IL-16": {"biological_target": "T1, IL-16 (Mus musculus, UniProt O54824)", "T1 construct": "polyhistidine fusion protein containing the 119 C-terminal residues encoded by the previously reported murine cDNA; polyhistidine (cleaved yes); made in house", "T1 sequence (O54824 1204-1322)": "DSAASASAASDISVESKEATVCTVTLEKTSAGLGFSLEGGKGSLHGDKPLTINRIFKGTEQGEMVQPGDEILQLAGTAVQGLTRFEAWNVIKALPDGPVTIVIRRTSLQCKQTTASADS", "test": "IL-16-induced migration of human T-cells", "format": "cell-based", "conditions": "co-incubation of IL-16 and peptide"}, "HIV-1 gp120 [1]": {"biological_target": "T2, HIV-1 gp120 (Human immunodeficiency virus type 1 group M subtype B, UniProt P04578)", "conditions": "gp120 5 μg/ml, co-incubation"}, "[2]": {"biological_target": "T3, rIL-16 / GST-murine D3D4 fusion protein (Mus musculus, UniProt O54824)", "T3 construct": "murine IL-16 cDNA construct in pET-16b expressing the C-terminal 119 amino acids of IL-16; polyhistidine (pET-16b vector); made in house; host or cells: IL-16: coupled in vitro transcription-translation (TNT T7, Promega); GST-D3D4: E. coli, vector pGEX-5X.1", "T3 sequence (O54824 1205-1322 limits assumed)": "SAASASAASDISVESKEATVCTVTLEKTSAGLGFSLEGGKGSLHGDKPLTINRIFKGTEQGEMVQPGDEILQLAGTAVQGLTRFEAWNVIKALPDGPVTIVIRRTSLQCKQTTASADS", "test": "in vitro binding of 35S-labeled murine rIL-16 to GST-murine D3D4 fusion protein", "conditions": "each peptide 10^-5 M, 10 ug/ml", "protocol": "Complexes were isolated by centrifugation, then bound rIL-16 was released by boiling in SDS-PAGE buffer, resolved by SDS-PAGE, and detected by autoradiography. Specificity of the interaction between rIL-16 and D3D4 was assessed by competition with an excess of unlabeled rIL-16. ^35S-labeled rIL-16 incubated with GST (lane 1); ^35S-labeled rIL-16 incubated with GST-D3D4 (lane 2); ^35S-labeled rIL-16 plus excess unlabelled rIL-16 incubated with GST-D3D4 (lane 3); ^35S-labeled rIL-16 plus10 ug/ml peptide A (lane 4); ^35S-labeled rIL-16 plus 10 ug/ml peptide B (lane 5); ^35S-labeled rIL-16 plus 10 ug/ml peptide C (lane 6); ); ^35S-labeled rIL-16 plus 10 ug/ml peptide A and peptide B (lane 7). The arrow indicates the position of IL-16 on the gel. The identity of this band was re-confirmed by immunoblotting with anti-IL-16 antibody.\nRadiolabeled murine IL-16 was prepared by in vitro translation and transcription (TNT T7, Promega) of a murine IL-16 cDNA construct in pET-16b expressing the C-terminal 119 amino acids of IL-16. Each coupled transcription-translation reaction was conducted in medium supplemented with [^35S]methionine according to the manufacturer's instructions.\nA glutathione-S-transferase (GST)-murine D3D4 fusion protein was produced by subcloning the murine D3D4 domain cDNA sequences encoding the CD4 protein open reading frame from Phe^182 to Phe^372 into pGEX-5X.1 (Pharmacia). The GST-D3D4 fusion protein was purified according to the Pharmacia GST-fusion protein purification protocol using glutathione-conjugated Sepharose 4B beads in the presence of 2 mM dTT. […]\nTo investigate IL-16 interaction with the D3D4 of CD4, the GST-D3D4 fusion protein, or GST alone, was bound to the glutathione-conjugated Sepharose 4B beads. […] The GST-D3D4 or GST proteins were released from the beads by boiling in SDS gel loading buffer, and the supernatant was analyzed by 12% SDS-polyacrylamide gel electrophoresis (SDS-PAGE). The presence of ^35S-labeled mrIL16 was detected by autoradiography of the dried gel. […]"}, "rIL-16": {"biological_target": "T4, rIL-16 (Mus musculus, UniProt O54824)", "T4 construct": "polyhistidine fusion protein containing the 119 C-terminal residues encoded by the previously reported murine cDNA; polyhistidine (cleaved yes); made in house; host or cells: Escherichia coli strain HMS 174, vector pET16b", "T4 sequence (O54824 1204-1322)": "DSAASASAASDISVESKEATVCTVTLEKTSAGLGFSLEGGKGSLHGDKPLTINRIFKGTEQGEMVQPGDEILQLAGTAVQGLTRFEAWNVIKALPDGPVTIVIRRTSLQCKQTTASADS", "test": "IL-2R (CD25) induction on rIL-16-stimulated murine splenocytes, flow cytometry", "format": "cell-based", "conditions": "for % IL-2R+ CELLS: IL-16 + peptide, concentration not given (10^-6 M or 10^-7 M)", "protocol": "Induction of IL-2R (CD25) on rIL-16-stimulated murine splenocytes was detected by staining with FITC-conjugated anti-mouse IL-2R Ab (PharMingen). Cells were fixed with 10% formalin and stored at 4° C. in the dark before analysis with a Becton Dickinson FACScan 440 flow cytometer. The % IL-2R^+ cells was determined by subtracting the % isotype control positive from the total % positive events.\nPeptides A (SEQ ID NO:15) and C (SEQ ID NO:19) were inhibitory at 10^−7 M, but not 10^−6 M. The negative control peptide D (SEQ ID NO:20) (10^−6 M) had no effect on rIL-16-stimulated IL-2R expression.\nMurine splenocytes were incubated in control buffer, rIL-16 alone, or rIL-16 plus the indicated peptide. IL-2R expression was determined by flow cytometry using FITC-conjugated anti-IL-2R antibody. The % IL-2R^+ was determined by subtracting the FITC-conjugated isotype control antibody binding from the FITC-conjugated anti-IL-2R antibody binding. Isotype control antibody binding ranged from 1% to 4%."}, "murine rIL-16 [3]": {"biological_target": "T5, murine rIL-16 (Mus musculus, UniProt O54824)", "T5 construct": "polyhistidine fusion protein containing the 119 C-terminal residues encoded by the previously reported murine cDNA; polyhistidine (cleaved yes); made in house; host or cells: Escherichia coli strain HMS 174, vector pET16b", "T5 sequence (O54824 1204-1322)": "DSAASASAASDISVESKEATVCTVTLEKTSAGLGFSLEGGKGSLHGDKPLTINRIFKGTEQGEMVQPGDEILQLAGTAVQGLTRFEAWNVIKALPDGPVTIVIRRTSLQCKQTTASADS", "test": "murine rIL-16-stimulated murine splenocyte migration, modified Boyden chamber", "format": "cell-based", "conditions": "rIL-16 10^-9 M", "protocol": "(§1) Cell migration was assessed using a modified Boyden chamber. […] Cell migration is expressed as the mean % control migration.\n(§2) Results from multiple experiments were analyzed using Student's t test for paired variables, and Tukey's test for multiple variables. A P value<0.05 was considered significant.\nPeptide B (aa 341-352) includes the sequence WQCLLS (residues 344-349, SEQ ID NO:4) which is 100% conserved in all the species examined. Peptide A (aa 327-338) and peptide C (aa 351-362) correspond to the N-terminal and C-terminal flanks of peptide B, respectively. A random scrambled 12-residue peptide (LSKQKMVSREGT) designated peptide D (SEQ ID NO:20) was used a negative control for nonspecific effects of peptide administration on splenocyte motility. Criteria for the design of peptide D included overall hydrophilicity, neutral charge and no cysteine residues (to prevent possible dimer formation).\nMurine spleens were harvested from healthy 8-week male BALB/c mice (Jackson Laboratory). Splenocytes were isolated by grinding spleens between fiysted slides in M199 culture medium (M. A. Bioproducts), supplemented with 0.4% bovine serum albumin, 22 mM HEPES buffer, 100 with U/ml of penicillin, 100 μg/ml streptomycin (M199-HPS). Cells were washed and erytbrocytes were lysed in Gey's solution. Splenocytes were washed twice in M199, and resuspended to a final concentration of 2×10^6 cells/ml in RPMI1640 medium (BioWhittaker) supplemented with 10% FBS, 100 U/ml of penicillin and 100 μg/ml of streptomycin. By flow cytometry, 25% of the isolated splenocytes within the lymphocyte-cloud were CD4^+.\nRecombinant murine IL-16 was produced in Escherichia coli (strain HMS 174; Novagen) as a polyhistidine fusion protein containing the 119 C-terminal residues encoded by the previously reported murine cDNA (Keane et al., (1998) J. Immunol. 160: 5945-5954), using the bacterial expression vector pET16b (Novagen). The recombinant product corresponds to the secreted form of natural murine IL-16 following cleavage by caspase-3 (Zhang et al. (1998) J. Biol. Chem. 273:1144-1149). The rIL-16 was purified by metal chelation chromatography, and the polyhistidine tag was cleaved with factor Xa (New England Biolabs)."}, "HIV-1 gp120 [4]": {"biological_target": "T2, HIV-1 gp120", "conditions": "human CD4 point mutant", "protocol": "Cell migration was assessed using a modified Boyden chamber. (Center, et al., (1982) J. Immunol. 128:2563-2568; Cruikshank, et al., (1982) J. Immunol. 128:2569-2574). […] For blocking experiments, 10^−9 M murine rIL-16 with various concentrations of oligopeptides were mixed and placed in the lower well. The upper and lower wells were separated by 8 μm pore size nitrocellulose filter membrane (Neuro Probe). Following incubation (3 h, 37° C.), the membranes were removed, stained with hematoxylin, and dehydrated. Cell migration was quantified by counting the number of cells migrating beyond a depth of 40 μm. Counts were compared with control cells exposed to M199-HPS alone, which was normalized to 100%. Cell migration is expressed as the mean % control migration. All samples were tested in duplicate, with five high power fields counted in each duplicate."}, "murine rIL-16 [5]": {"biological_target": "T5, murine rIL-16", "test": "IL-16-stimulated T-lymphocyte migration, human CD4 D4 point mutants", "format": "cell-based", "conditions": "human CD4 D4 wild type or point mutant, rIL-16 10^-9 M", "protocol": "Point mutations at Leu 348 and Leu 349 in human CD4 were prepared as follows.\nInitially 100 ng of wild type human CD4 cDNA (Richard Axel, Columbia University, N.Y.) contained within the mammalian expression vector pcDNA3.1(−) (Invitrogen, Carlsbad, Calif.) was subjected to the polymerase chain reaction (PCR) in the presence of 125 ng of each set of primer pairs. PCR conditions were as follows:\nThe time for the elongation step varied according to the relationship of 2 minutes per kilobase of plasmid DNA length. The product was then subjected to restriction digestion with the enzyme Dpn for 1 h. at 37° C. Dpn is specific for methylated nucleotides and therefore will only cut the original wide type CD4-plasmid DNA. The transformation reaction required the addition of 1 μl of the digest to 50 μl of Epicurean Blue Eschericia coli which was incubated on ice for 30 min. and finally heat shocked 42° C., 45 sec to seal the supercompent bacteria. The resultant bacteria culture was selected on ampicillin plates and sequenced to confirm mutagenesis.\nas §1, §2\n(FIGS. 10A and 10B). […] (FIGS. 11A and 11B)."}},
  "data": [
    {"molecule": "CLLS (OTHER INFORMATION: Description of Artificial Sequence:IL-16 antagonist peptide)", "values": [
      {"measurement": "effect on anti-CD4 antibody OKT4-induced migration", "setting": "anti-CD4 antibody (OKT4)", "result": "unaffected"},
      {"measurement": "IL-16-induced migration of human T-cells blocked", "setting": "IL-16", "result": "approximately 90%"},
      {"measurement": "effect on HIV-1 gp120-induced migration", "setting": "HIV-1 gp120 [1]", "result": "unaffected"}
    ]},
    {"molecule": "VSEEQKVVQVVA (OTHER INFORMATION: Description of Artificial Sequence:IL-16 antagonist peptide) [peptide A, 12-residue peptide, aa 327-338 of mouse CD4 D4]", "values": [
      {"measurement": "IL-16 binding to GST-D3D4 in the presence of peptide", "setting": "[2]", "result": "reduced to background"},
      {"measurement": "% IL-2R+ CELLS", "setting": "rIL-16; first line of the peptide's pair", "result": 21, "unit": "%"},
      {"measurement": "% IL-2R+ CELLS", "setting": "rIL-16; second line of the peptide's pair", "result": 37, "unit": "%"},
      {"measurement": "inhibition of IL-16-stimulated induction of IL-2R", "setting": "rIL-16; peptide 10^-7 M", "result": "inhibitory"},
      {"measurement": "inhibition of rIL-16-induced splenocyte migration", "setting": "murine rIL-16 [3]; peptide 10^-6 M", "result": "inhibited"},
      {"measurement": "IL-16-inhibitory activity (block of murine rIL-16-stimulated murine splenocyte migration)", "setting": "murine rIL-16 [3]; peptide concentration not given", "result": "IL-16-inhibitory activity"}
    ]},
    {"molecule": "NLTCEVWGPTSPKLMLSLKLENKEAKVSKREKAVWVLNPEAGMWNCLLSDSGQVLLESNIKVLPTWSTPVQPM (OTHER INFORMATION: Description of Artificial Sequence:IL-16 antagonist peptide, human CD4 D4 with glutamine 346 to asparagine) NLTCEVWGPTSPKLMLSLKLENKEAKVSKREKAVWVLNPEAGMWNCLLSDSGQVLLESNIKVLPTWSTPVQPM", "values": [
      {"measurement": "inhibition of HIV-1 gp120-stimulated T-lymphocytes", "setting": "HIV-1 gp120 [4]", "result": "no loss in inhibition"},
      {"measurement": "inhibition of IL-16-stimulated T-lymphocyte migration", "setting": "murine rIL-16 [5]", "result": "IL-16-inhibitory activity"},
      {"measurement": "inhibition of IL-16-stimulated T-lymphocyte migration", "setting": "murine rIL-16 [5]; listed as human CD4 (Q346→N)", "result": "no loss in inhibition"}
    ]}
  ]
}
